Experimental data: patent publication US6569458B1, “Process for producing small particles of biologically active molecules” (Alkermes Controlled Therapeutics, Inc., priority 1989, dated 2003)

Assays:
[1] = Diameter of particles by light microscopy; assay type: physicochemical
Experimental: A 250 mg sample of the enzyme horse radish peroxidase (HRP) (Sigma Chemical Co, St. Louis, Mo.) was dissolved in 10 ml of a 0.05 M phosphate buffer solution having a pH of 7.2. The solution was atomized through an ultrasonic nozzle (SonoTek Corp., Model 8700-60MS) into a stirred container of liquid nitrogen. The liquid nitrogen containing the frozen atomized spheres was next placed in a −80° C. freezer until the liquid nitrogen evaporated, about one to two hours. The frozen protein spheres were then placed in a lyophilizer (Virtis Company Inc., Model 10-MR-TR) for at least 12 hours to produce porous particles.
The sample prepared from 100 mg ammonium bicarbonate/ml was suspended in ethyl acetate and fragmented by ultrasonic irradiation.
This was ultrasonicated to form frozen particles which were lyophilized according to the procedure of Example 1.

[2] = Particle size analysis of fragmented particles (Microtrac small particle analyzer); assay type: physicochemical; details: for mean particle diameter / size distribution for the effective diameters: ammonium bicarbonate buffer, ethyl acetate, ultrasonic irradiation; for mean particle diameter after five minutes sonication: atomized into liquid nitrogen, lyophilized, sonicated in ethanol 5 min; for Particle Size: sonicated 5 min
Experimental: A 50 mg sample of the lyophilized microspheres was suspended in 5 ml of 100 percent ethanol solution and cooled in an ice water bath to 0° C. With continuous cooling, the HRP porous particles were then exposed to an ultrasonic probe (Virtis Company Inc., Virsonic 300) for different times. Samples were analyzed for particle size diameter on a Microtrac Model 7995 Small Particle Analyzer (Leeds and Northrup).
The hemoglobin particles were suspended in ethyl acetate and fragmented by subjecting them to ultrasonic irradiation with cooling by an ice bath.

[3] = as above; assay type: physicochemical; details: ethyl acetate
[4] = Scanning electron micrographs (SEM) of particles; assay type: physicochemical
Experimental: 125 mg bovine hemoglobin dissolved in 5 ml 0.05 M ammonium bicarbonate was formed into particles by spraying and lyophilization, according to the procedure of Example 1. […] A control solution containing only ammonium bicarbonate was also sprayed and lyophilized as described in Example 1.
The hemoglobin particles were suspended in ethyl acetate and fragmented by subjecting them to ultrasonic irradiation with cooling by an ice bath. When the resulting particles were subjected to particle size analysis using a Leeds & Northrup Microtrac small particle analyzer, the mean particle diameter was 3.7±2.8 micrometers.

[5] = Heme absorption, second derivative spectra of processed hemoglobin; assay type: physicochemical, bovine; details: homogenized particles stored in ethyl acetate for seven days, dissolved in 0.2 M sodium phosphate pH 7.7
Experimental: The homogenized hemoglobin particles were stored in ethyl acetate for seven days, after which the solvent was decanted and the hemoglobin dried under vacuum at room temperature. The resulting solid was dissolved in 0.2 M sodium phosphate pH 7.7, and its heme absorption compared with that of freshly dissolved bovine hemoglobin, as well as with hemoglobin denatured in 6 M guanidinium chloride, using a Hewlett Packard diode array spectrophotometer. In order to accentuate spectral features, the second derivative of absorption with respect to wavelength was obtained for each sample.

[6] = HRP enzyme activity, rate of oxidation of p-anisidine; assay type: biochemical
Experimental: The activity of the HRP was determined after the lyophilization step and after the ultrasonication step. The method used to determine the enzyme activity is based upon the rate of oxidation of p-anisidine and is described in detail in The Worthington Enzyme Manual, Worthington, D. D., (ed.), Worthington Biochemical Corp., Freehold, N.J., p. 254 (1988).

[7] = SOD enzyme activity, inhibition of the reduction of nitro-blue tetrazolium by the superoxide anion; assay type: biochemical
Experimental: The activity of the SOD was determined after the lyophilization step and after the ultrasonication step. The method used to determine the enzyme activity is based upon the ability of SOD to inhibit the reduction of nitro-blue tetrazolium by the superoxide anion. This assay is described in detail by Winterbourne, et al., in “The Estimation of Red Cell Superoxide Dismutase Activity,” J. Lab. Clin. Med., 85, 337 (1975). After the lyophilization step, the SOD had 94% of its original activity. After the ultrasonication step, the SOD has 91% of its original activity.

NCC(=O)O [Glycine]
mean diameter of porous particles ([1]; light microscopy, after lyophilization, before ultrasonication): 24.4±14.6 micrometers | mean diameter after ultrasonication ([2]; […] solution in deionized water, ultrasonication for 4 min): 3.2±1.9 micrometers

C[C@]12CC[C@H]3[C@@H](CCC4=CC(=O)CC[C@@]43C)[C@@H]1CC[C@@H]2O [testosterone, reference compound]
mean diameter of resulting particles ([2]; […] solution in 1,4 dioxane): 5.4±2.9 micrometers

bovine hemoglobin
size distribution for the effective diameters ([3]; after 80 sec of homogenization): 7.2±3.7 micrometers | particle diameter size distribution ([3]; after 300 sec of homogenization): 6.6±3.7 micrometers | length of flat irregular plates (SEM of sonicated particles) [4]: ~1.0 micrometer | thickness of flat irregular plates (SEM of sonicated particles) [4]: 0.1 micrometer | second derivative heme absorption spectrum compared with fresh hemoglobin [5]: identical | mean particle diameter / size distribution for the effective diameters [2]: 3.7±2.8 micrometers | mean particle diameter after five minutes sonication [2]: 1.8±1.3 micrometers | mean particle diameter after 5 minutes sonication ([2]; sprayed into liquid argon before lyophilization): 3.6±2.8 micrometers

catalase
mean particle diameter after five minutes sonication [2]: 4.5±3.3 micrometers

dextran
mean particle size as a function of solution concentration ([2]; 20, 10, 5, 1, 2.5 and 0.5 percent solutions, ethanol, ultrasonicated five minutes): smallest particles are produced using 0.5 to 5% dextran solutions

heparin [reference compound]
mean particle diameter after five minutes sonication [2]: 6.9±4.0 micrometers

horse radish peroxidase [HRP]
original activity retained after each step of the particle size reduction process ([6]; after the lyophilization step and after the ultrasonication step, phosphate buffer pH 7.2, ethanol): ≥ 90% | activity retained during the process ([6]; ammonium bicarbonate buffer, ethyl acetate, ultrasonic fragmentation (Example 13)): 90% | diameter of the porous spheres after lyophilization ([1]; before sonication, range): 25-35 micrometers | mean particle size as a function of time of ultrasonication ([2]; after 100 seconds ultrasonication): under five | mean particle diameter / size distribution for the effective diameters [2]: 2.8±2.2 micrometers | Particle Size ([2]; citrate/phosphate buffer pH 5.2): 2.9 ± 2.1 µm | Particle Size ([2]; phosphate buffer pH 7.2): 3.5 ± 2.8 µm | Particle Size ([2]; tris buffer pH 9.1): 6.2 ± 3.7 µm

superoxide dismutase [SOD]
original activity after the lyophilization step ([7]; after lyophilization): 94% | original activity after the ultrasonication step ([7]; after ultrasonication): 91% | mean particle diameter after five minutes sonication [2]: 2.7±2.1 micrometers
